Data as given in patent US20240092841A1.

Columns and labels:
[1] = biological target: Galectin-3-binding protein (human) (UniProt Q08380); assay: co-IP with agarose-bound AvFc from H460 whole-cell lysate, mass spectrometry
[2] = biological target: Laminin subunit alpha-5 (human) (UniProt O15230); assay: as above
[3] = biological target: Serpin H1 (human) (UniProt P50454); assay: as above
[4] = biological target: Agrin (human) (UniProt O00468); assay: as above
[5] = biological target: Transmembrane protein 106B (human) (UniProt Q9NUM4); assay: as above
[6] = biological target: Magnesium transporter protein 1 (human) (UniProt Q9H0U3); assay: as above
Chain of UniProt Q9H0U3 (Q9H0U3 30-335 limits assumed): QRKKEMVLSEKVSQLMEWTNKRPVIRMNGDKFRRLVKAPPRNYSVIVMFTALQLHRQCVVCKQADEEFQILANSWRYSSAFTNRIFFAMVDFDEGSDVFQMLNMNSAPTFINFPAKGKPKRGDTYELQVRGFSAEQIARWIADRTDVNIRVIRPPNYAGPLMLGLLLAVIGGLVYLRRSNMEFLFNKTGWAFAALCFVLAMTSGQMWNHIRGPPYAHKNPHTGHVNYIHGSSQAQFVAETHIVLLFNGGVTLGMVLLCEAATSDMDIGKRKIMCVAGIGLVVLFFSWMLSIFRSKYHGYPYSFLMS

[7] = biological target: Solute carrier family 12 member 7 (human) (UniProt Q9Y666); assay: as above
Chain of UniProt Q9Y666 (Q9Y666 whole entry): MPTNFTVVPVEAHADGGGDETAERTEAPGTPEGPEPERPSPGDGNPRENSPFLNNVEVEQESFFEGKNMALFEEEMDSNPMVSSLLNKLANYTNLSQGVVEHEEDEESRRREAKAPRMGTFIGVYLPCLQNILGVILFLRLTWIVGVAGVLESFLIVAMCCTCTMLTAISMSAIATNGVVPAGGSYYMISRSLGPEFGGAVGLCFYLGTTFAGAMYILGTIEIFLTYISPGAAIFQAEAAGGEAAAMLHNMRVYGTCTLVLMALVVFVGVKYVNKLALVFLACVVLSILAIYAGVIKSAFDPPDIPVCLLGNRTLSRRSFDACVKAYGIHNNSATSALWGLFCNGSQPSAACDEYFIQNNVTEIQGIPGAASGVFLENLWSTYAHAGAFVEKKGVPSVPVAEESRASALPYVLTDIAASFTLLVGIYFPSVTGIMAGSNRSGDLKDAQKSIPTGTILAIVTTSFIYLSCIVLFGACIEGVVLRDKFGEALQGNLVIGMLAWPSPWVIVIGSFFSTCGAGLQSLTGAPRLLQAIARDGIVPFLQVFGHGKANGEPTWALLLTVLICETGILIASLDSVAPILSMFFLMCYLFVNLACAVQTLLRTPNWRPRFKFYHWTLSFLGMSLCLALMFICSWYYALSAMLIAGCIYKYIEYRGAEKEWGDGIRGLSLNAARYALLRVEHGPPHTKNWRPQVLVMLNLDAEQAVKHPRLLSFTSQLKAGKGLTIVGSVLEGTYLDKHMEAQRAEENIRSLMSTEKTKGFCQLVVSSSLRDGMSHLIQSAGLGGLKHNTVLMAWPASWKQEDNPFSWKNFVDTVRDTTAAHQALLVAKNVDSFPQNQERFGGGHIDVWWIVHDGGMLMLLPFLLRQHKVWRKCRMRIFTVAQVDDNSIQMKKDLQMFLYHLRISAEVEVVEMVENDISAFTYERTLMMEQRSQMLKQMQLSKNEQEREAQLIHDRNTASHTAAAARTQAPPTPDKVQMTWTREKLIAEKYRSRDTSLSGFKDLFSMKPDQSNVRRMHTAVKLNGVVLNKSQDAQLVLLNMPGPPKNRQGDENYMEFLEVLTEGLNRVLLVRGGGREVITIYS

[8] = biological target: Protocadherin Fat 1 (human) (UniProt Q14517); assay: as above
[9] = biological target: Renin receptor (human) (UniProt O75787); assay: as above
[10] = biological target: Neural cell adhesion molecule L1 (human) (UniProt P32004); assay: as above
[11] = biological target: Integrin alpha-5 (human) (UniProt P08648); assay: as above
[12] = biological target: Plexin-B2 (human) (UniProt O15031); assay: as above
[13] = biological target: Transferrin receptor protein 1 (human) (UniProt P02786); assay: as above
[14] = biological target: Secretory carrier-associated membrane protein 3 (human) (UniProt O14828); assay: as above
[15] = biological target: Integrin alpha-2 (human) (UniProt P17301); assay: as above
[16] = biological target: Contactin-associated protein 1 (human) (UniProt P78357); assay: as above
[17] = biological target: Myoferlin (Q9NZM1-2) (human) (UniProt Q9NZM1); assay: as above
[18] = biological target: Niemann-Pick C1 protein (human) (UniProt O15118); assay: as above
[19] = biological target: Tetratricopeptide repeat protein 13 (Q8NBP0-2) (human) (UniProt Q8NBP0); assay: as above
[20] = biological target: Nidogen-2 (human) (UniProt Q14112); assay: as above
[21] = biological target: Synaptonemal complex protein SC65 (human) (UniProt Q92791); assay: as above
[22] = biological target: Endothelial protein C receptor (human) (UniProt Q9UNN8); assay: as above
[23] = biological target: Cation-independent mannose-6-phosphate receptor (human) (UniProt P11717); assay: as above
[24] = biological target: Laminin subunit alpha-5 (human) (UniProt O15230); assay: co-IP with agarose-bound AvFc from A549 whole-cell lysate, mass spectrometry
[25] = biological target: Multidrug resistance-associated protein 1 (human) (UniProt P33527); assay: as above
[26] = biological target: Integrin alpha-V (human) (UniProt P06756); assay: as above
[27] = biological target: Magnesium transporter protein 1 (human) (UniProt Q9H0U3); assay: as above
[28] = biological target: Solute carrier family 12 member 7 (human) (UniProt Q9Y666); assay: as above
[29] = biological target: Attractin (human) (UniProt O75882); assay: as above
[30] = biological target: Cation-dependent mannose-6-phosphate receptor (human) (UniProt P20645); assay: as above
[31] = biological target: Spectrin beta chain, non-erythrocytic 1 (human) (UniProt Q01082); assay: as above
[32] = biological target: Integrin alpha-2 (human) (UniProt P17301); assay: as above
[33] = biological target: T-complex protein 1 subunit theta (human) (UniProt P50990); assay: as above
[34] = biological target: Integrin alpha-3 (human) (UniProt P26006); assay: as above
[35] = biological target: Integrin alpha-1 (human) (UniProt P56199); assay: as above
[36] = biological target: Solute carrier family 2, facilitated glucose transporter member 1 (human) (UniProt P11166); assay: as above
[37] = biological target: Integrin beta-5 (human) (UniProt P18084); assay: as above
[38] = biological target: Prolow-density lipoprotein receptor-related protein 1 (human) (UniProt Q07954); assay: as above

Chain of UniProt O15230 (O15230 36-3695 limits assumed): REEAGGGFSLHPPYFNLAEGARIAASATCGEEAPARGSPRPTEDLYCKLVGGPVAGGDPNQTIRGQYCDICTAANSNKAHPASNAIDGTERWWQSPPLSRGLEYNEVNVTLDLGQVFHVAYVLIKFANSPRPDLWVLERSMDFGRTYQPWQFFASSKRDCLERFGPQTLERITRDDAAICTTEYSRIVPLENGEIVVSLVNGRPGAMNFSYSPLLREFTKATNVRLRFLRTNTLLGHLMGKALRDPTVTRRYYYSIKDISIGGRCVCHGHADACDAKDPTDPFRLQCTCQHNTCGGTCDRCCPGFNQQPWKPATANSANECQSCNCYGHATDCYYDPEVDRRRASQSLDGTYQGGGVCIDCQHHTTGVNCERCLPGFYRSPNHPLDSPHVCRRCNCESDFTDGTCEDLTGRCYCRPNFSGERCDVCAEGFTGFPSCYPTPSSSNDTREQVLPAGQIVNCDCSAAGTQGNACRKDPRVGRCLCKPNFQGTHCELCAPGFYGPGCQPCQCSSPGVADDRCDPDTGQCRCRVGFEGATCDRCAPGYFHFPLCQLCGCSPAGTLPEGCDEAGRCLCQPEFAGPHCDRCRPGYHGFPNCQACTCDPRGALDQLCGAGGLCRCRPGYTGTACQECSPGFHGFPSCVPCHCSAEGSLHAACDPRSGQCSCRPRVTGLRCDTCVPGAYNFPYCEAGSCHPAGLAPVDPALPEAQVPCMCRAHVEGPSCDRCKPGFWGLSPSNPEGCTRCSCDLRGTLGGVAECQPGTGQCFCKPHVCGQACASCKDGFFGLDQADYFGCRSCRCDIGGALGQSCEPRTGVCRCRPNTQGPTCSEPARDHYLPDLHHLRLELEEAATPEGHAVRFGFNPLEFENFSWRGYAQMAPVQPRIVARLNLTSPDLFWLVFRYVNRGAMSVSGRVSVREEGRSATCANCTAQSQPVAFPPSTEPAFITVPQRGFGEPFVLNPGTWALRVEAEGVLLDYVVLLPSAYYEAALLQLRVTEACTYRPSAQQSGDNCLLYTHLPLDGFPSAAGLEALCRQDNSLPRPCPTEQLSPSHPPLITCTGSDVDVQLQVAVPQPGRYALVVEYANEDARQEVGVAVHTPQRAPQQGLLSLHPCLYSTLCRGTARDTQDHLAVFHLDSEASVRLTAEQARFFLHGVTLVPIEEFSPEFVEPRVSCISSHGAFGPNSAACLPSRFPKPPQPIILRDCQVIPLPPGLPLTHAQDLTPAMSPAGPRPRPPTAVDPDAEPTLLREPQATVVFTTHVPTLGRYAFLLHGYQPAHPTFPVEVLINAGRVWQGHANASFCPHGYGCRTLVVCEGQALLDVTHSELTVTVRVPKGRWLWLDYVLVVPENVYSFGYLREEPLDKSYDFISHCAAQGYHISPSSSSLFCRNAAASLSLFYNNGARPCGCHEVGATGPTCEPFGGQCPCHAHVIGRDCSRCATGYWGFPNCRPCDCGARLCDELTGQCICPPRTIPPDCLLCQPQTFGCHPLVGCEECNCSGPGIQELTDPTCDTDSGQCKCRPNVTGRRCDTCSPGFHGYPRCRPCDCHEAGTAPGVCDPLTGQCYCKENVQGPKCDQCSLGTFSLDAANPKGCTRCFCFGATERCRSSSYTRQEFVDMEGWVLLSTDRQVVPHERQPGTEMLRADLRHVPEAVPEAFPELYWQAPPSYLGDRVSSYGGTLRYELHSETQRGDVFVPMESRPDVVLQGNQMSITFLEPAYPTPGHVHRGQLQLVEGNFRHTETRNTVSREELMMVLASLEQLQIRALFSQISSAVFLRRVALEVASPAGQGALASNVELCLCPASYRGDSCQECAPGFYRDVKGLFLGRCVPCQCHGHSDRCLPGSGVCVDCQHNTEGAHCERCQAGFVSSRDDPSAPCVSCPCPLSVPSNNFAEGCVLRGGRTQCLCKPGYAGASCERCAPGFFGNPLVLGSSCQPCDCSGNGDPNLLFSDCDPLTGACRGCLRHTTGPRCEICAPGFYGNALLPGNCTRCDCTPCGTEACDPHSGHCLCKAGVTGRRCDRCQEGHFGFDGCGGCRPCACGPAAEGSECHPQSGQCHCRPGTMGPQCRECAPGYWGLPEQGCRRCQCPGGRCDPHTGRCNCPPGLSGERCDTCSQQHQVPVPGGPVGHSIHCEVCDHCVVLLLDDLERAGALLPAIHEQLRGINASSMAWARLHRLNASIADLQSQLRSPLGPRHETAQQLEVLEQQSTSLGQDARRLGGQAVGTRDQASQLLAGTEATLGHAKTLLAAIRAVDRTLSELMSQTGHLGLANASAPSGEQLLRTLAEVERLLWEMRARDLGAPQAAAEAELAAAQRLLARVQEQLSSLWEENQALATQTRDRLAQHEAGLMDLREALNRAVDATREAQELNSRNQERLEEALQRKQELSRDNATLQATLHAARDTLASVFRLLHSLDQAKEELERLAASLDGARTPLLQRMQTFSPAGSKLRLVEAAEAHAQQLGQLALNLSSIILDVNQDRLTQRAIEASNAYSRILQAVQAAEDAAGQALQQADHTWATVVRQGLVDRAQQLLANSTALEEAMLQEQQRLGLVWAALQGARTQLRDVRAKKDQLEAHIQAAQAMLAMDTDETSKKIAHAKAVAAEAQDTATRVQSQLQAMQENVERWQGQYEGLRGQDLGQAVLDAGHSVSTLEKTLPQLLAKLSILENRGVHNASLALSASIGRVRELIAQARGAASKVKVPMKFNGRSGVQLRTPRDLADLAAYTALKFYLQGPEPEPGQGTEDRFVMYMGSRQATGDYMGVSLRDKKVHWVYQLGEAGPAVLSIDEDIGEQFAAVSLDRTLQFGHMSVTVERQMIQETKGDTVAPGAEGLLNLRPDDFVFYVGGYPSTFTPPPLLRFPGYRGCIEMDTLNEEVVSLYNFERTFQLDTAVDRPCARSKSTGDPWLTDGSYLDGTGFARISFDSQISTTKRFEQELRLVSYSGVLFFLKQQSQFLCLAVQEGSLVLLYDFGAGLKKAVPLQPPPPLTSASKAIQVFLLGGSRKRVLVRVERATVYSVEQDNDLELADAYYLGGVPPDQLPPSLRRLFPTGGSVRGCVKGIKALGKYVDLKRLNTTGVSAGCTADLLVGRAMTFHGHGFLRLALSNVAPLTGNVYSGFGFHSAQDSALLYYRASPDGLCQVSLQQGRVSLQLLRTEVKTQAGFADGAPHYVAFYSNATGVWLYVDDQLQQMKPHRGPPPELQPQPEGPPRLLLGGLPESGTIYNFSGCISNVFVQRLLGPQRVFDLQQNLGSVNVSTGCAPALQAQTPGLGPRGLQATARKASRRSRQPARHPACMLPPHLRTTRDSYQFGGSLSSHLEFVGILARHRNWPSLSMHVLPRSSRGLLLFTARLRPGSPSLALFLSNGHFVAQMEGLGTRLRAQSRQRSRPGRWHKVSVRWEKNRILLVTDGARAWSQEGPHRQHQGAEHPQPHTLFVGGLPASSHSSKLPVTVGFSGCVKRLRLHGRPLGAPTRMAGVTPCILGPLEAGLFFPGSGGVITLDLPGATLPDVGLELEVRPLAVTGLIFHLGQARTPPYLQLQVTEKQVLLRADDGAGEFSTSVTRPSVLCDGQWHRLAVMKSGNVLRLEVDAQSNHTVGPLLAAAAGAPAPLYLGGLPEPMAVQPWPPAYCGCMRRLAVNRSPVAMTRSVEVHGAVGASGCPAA

With Avaren-Fc (AvFc) (Fc fusion) the Percentage of Total Spectra (%) [1] was 0.17%, the Percentage of Total Spectra (%) [2] was 0.23% and the Percentage of Total Spectra (%) [3] was 0.058%. For the same substance, the Percentage of Total Spectra (%) [4] was 0.15%, the Percentage of Total Spectra (%) [5] was 0.11% and the Percentage of Total Spectra (%) [6] was 0.017%. For the same substance, the Percentage of Total Spectra (%) [7] was 0.0083%, the Percentage of Total Spectra (%) [8] was 0.058% and the Percentage of Total Spectra (%) [9] was 0.066%. It also gave a Percentage of Total Spectra (%) [10] of 0.099%, a Percentage of Total Spectra (%) [11] of 0.041% and a Percentage of Total Spectra (%) [12] of 0.13%. For the same substance, the Percentage of Total Spectra (%) [13] was 0.21%, the Percentage of Total Spectra (%) [14] was 0.083% and the Percentage of Total Spectra (%) [15] was 0.0083%. It also gave a Percentage of Total Spectra (%) [16] of 0.13%, a Percentage of Total Spectra (%) [17] of 0.11% and a Percentage of Total Spectra (%) [18] of 0.066%. The Percentage of Total Spectra (%) [19] was 0.11%, the Percentage of Total Spectra (%) [20] was 0.066% and the Percentage of Total Spectra (%) [21] was 0.066%. It also gave a Percentage of Total Spectra (%) [22] of 0.033%, a Percentage of Total Spectra (%) [23] of 0.44% and a Percentage of Total Spectra (%) [24] of 0.34%. For the same substance, the Percentage of Total Spectra (%) [25] was 0.07%, the Percentage of Total Spectra (%) [26] was 0.15% and the Percentage of Total Spectra (%) [27] was 0.021%. It also gave a Percentage of Total Spectra (%) [28] of 0.021%, a Percentage of Total Spectra (%) [29] of 0.084% and a Percentage of Total Spectra (%) [30] of 0.028%. It also gave a Percentage of Total Spectra (%) [31] of 0.11%, a Percentage of Total Spectra (%) [32] of 0.11% and a Percentage of Total Spectra (%) [33] of 0.091%. For the same substance, the Percentage of Total Spectra (%) [34] was 0.15%, the Percentage of Total Spectra (%) [35] was 0.021% and the Percentage of Total Spectra (%) [36] was 0.007%. The Percentage of Total Spectra (%) [37] was 0.11% and the Percentage of Total Spectra (%) [38] was 0.056%.
